In the nanobody polyreactivity screen of Harvey et al. (2022):

Assay: yeast display, Sf9 membrane polyspecificity reagent, FACS + sequencing; frameworks hold sequencing errors
Procedure, shortened: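 Galactose induction of a Saccharomyces cerevisiae BJ5465 synthetic nanobody display library ran 36–48 hours. The cells were then stained for 1 hour at 4 °C with 10% biotinylated, detergent-solubilized Sf9 membrane reagent, pulled down on streptavidin microbeads and FACS-sorted into low and high (top ~1%) gates on expression and reagent-binding fluorescence. Labels for polyreactivity follow the gate of origin.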

Sequence | polyreactivity (PSR sort gate)
QVQLVESGGGLVQAGGSLRLSCAASGSTFGDYAMGWYRQAPGKERELVAAISVRGGSTYYADSVKGRFTISRDYAQNTVYLQMNSLKPEDTAVYYCNKDLYRYPGYDSWGQGTQVTVSS | high polyreactivity
PVQLVESGGGLVQAGGSLRLSCAASGSIFGVNDMGWYIQGAGKERELVAGINQGGGSTYYADSVKGRFTISRDIAKNTVYLQMNSLKPEDTAVYYCAAVRYVLRSPARYGYWGQGTQVTVSS | low polyreactivity
QVQLVESGGGLDQAGGSLRLSCAASGIILYGYTMGGYRQAPGKERELVAAINRGGSTNYADSVKGRFTISRDNAKNTVYLQMNSLKPEDTAVYYCAVDTVVASTYDYWGQGTQVTVSS | low polyreactivity
QVQLVESGGGLVQAGGSLRLSCAASGRIFIYYTMGWYRPAPGKERELVASITWSGGRTYYADSVKGRFTISRDNAKNTVYLQMNSLKPEDNAVYYCNAGYSIGLVAYGYWGQGTQVTVSS | low polyreactivity
QVQLVESGGGLVQAGGSLRLSCAASGLTFKLYVMGWYRQAPGKERELVAAISGGGSTYYADSVKGRFTISRDNAKNTVYLQMNSLKPEDTAVYYCAAVRYFEYEYWGQGTQVTVSS | low polyreactivity
QVQLVESGGGLVQAGGSHRLSCAASGRIFGTYAMGWYRQAPGKDRELVAAISFSGGSTYYADSVKGRFTISRDNAKNTVYLQMNSLKPDDTAVYYGAAGYRTYYGYRYGYWGQGTQVTVSS | high polyreactivity
QVQLVESGGGLVQAGGRLRLSCAASGINLGRYAMGWYRQAPGKERELVASISWSGGSTYYADSVKGRFTISRDNAKNTVYLQMNSLIPEDPAVYYCAATYWKSRYGVRGYPFGYWGQGTQVTVSS | high polyreactivity
QVQIVESGGGLVQAGGSLSLICAASGFIIDDNTMGWYRQAPGKERELVAAISYSAGSTYYADSVKGRFTISRDNAKNTVFLQMISVKTEDTAVYYCAAQHYWVTSYLSSYDYWGQGTQVTVSS | low polyreactivity
QVQLVESGGGLVQAGGSLRLSCAASRNIFDTYVMGWYRQAPGKETELVAANTSDGGTYYADSVKGRFTISRDNAKNTVFFQMNSLKPVDTAVYSCAADTYYYPIHDYWGQGTQVTVSS | low polyreactivity
QVQLVESGGGLVQAGGSLRLSCAASGITFKSNAMGWYRQAPGKERELVAAISRRASSTYYADSVKGRFTISRDNAKNTVYLQRNSLNPEDTAVYYCNAVLPVYRTNMDYWGQGTQVSVSS | high polyreactivity
QVQRVESGGGLVQAGGSLRLSCAASRITFSVNALRWYRHAPGKDRELVASISSGGSTNYADSVQGGFTISRDNAKNTVDLQMNSLKQEDTAVYYCNADVGFGSMDYCGQGTQVTVSS | low polyreactivity
QVQLVESGGGLFQAGGSLRLSCAASGRILDYYAMGWYRQAPGKERELVAAIRRRGVITYADSVKGRFTISRDNAKNTVYLLMKSLKPEDTAVYYCAAGGYEYGYWGQGTQVTVSS | low polyreactivity
QVQLVESGGGLVQAGGSLRLSCAASGRTFDGYTMGWSRQAPGKERELVAAISRTGSTNYADSVKGRFTISRDNAKNTVYLQMNSLEPEDTAVYYCNAARRYFRYSRKTSAWYYYWGQGTQVTVSS | high polyreactivity
QVQLVESGGGLVQAGGSLRLSCAASGSIFTPNGRGWYRPAPGKDSELVAAISQSGGSTFYADSVKGRFTMSRDNAKYTVYLQMNSLKPEDSAVYYCATEYYGPVYDLDYDYWGQGSQVTVSS | low polyreactivity
QVQLVESGGGLVQAGGSLRLSCAASGRTFQTNAMGWYRQAPGKVRELVAAISSTGGSTYYADSVKGRFTISRDNAKYTVYLQMNSLKPEDTAVYYCNAGRTYRYDYWGQGTQVTVSS | high polyreactivity
QVQLVESGGGLVQAGGSLRLSCAASGRTFRVYTMGWYRQAPGKERELVAAISSRGGSTYYADSVKGRFTISRDNAKNTVYLQMYSLKPEDTAVYYCAASKFRSGGYDYWGQGTQVTVSS | high polyreactivity
QVQLEESGGGLVQAGGSLRLSCAASGFTFDANAMGWYRQAPGKERELVAAISSGGGSTYYADSVKGRFTISRDNPKNTVYLQMNSLKPEDTAVYYCAKVYLVYKSYPYDYWGLGTQVTVSS | high polyreactivity
QVQLVESGGGLVQAGGSLRLSCAASGFIFYEYDMGWYRQAPGKEGELVAAISVSGGSTYYADSVKGRFTISRDNAKNTVYLQMNSLKPEDTAVYYCAVFLPDYGRYDYWGQGTQVTVSS | low polyreactivity
QVQLVESGGGLVQAGVSLRLSCAASGRIFDRNAMGWYRQAPGKERELVARISRTGGSTYYADSVKGRFTISRDNAKNTVYLQMNSLKPEDTAVYYSAASRGGGYDYWGQGTQVTVSS | high polyreactivity
HEQQQDSGAGLVQAGGSLRLSCAASGNIFDSPRMGWYRQATGKEREFVATIGSGTITNYADSVKGRFTISRDNAKNTVYLQMNSLKPEDTAVYYCAAEFYLRRFKVTKRYWFDYWGQGTQVTVSS | low polyreactivity
QVQLVESGGGLVQAGGSLRLSCAASGRTFRYNALGWYRPAPGKERELVASITSGGSTNYADSVKGRFTMSRDNAKNTVYLQMNSLKPEDTAVYYCASDERRPYWQHSIGSGRPFDYWGQGTQVTVSS | low polyreactivity
QVQLVESGGGLVQAGGSLRLSCAASGSTFPYNTMGSYIQAPGKESELVATIRSRGDSTYFADSVKGRFTISRDNAKNTVYFQMNSLKPEDTAFYYCNADPRTLWWSRPYYSWGQGTQVTVSS | high polyreactivity

Sequence | polyreactivity (PSR sort gate)
QVQLVESGGGLVQAGGSLRLSCAASGSIFDPYAMGWYRQAPGKERELVAAIDYSGGSTYYADSVKGRFTISRDNAKNTVYLQMNSLKPEDTAVSYCAADYFWLYYSEYGYWGQGTQVTVSS | low polyreactivity
QVQLVESGGGLVQAGGSLRLSCAASGSTFGPNTMGWYRQAPGKERELVAAITSTGSTYYADSVKGRFTISRDNGKNTVYFEMNILLPEDTAVYYCAARRYYGVYYAFYYWGQGTQVTVSS | high polyreactivity
QVQLVESGGGLVQAGGSLRLSSAASGFIFSYNAMRWYRQARGKERELVAAITYSDGGTYADSVKARFTISRDNAKNTVDLQMHSLKPEDTAVYYCARRQVLYSRDFEYDYWGQGTLVTVSS | low polyreactivity
QVQLVESGGGLVQAGGSLRLSCAASGSIFRKNAMGWYRQAPGKERELVAAISSGGGGTYYADSVKGRFTISRDNAKNTVYLQMNSLKPEDTAVYYCNKREGKGGNTKYDYWGLGTQVTVSS | low polyreactivity
QVQLVESGGGLVQAGGSLRLSWAASGSTFVVNAMGWYRQAPGKERELVAAITQDGDGTYYADSVKGRFTISRDNAKNTVYLQMNSLKPEDTAVYYCAAYPFYGPYDEFDYWGQGTEVTVSS | low polyreactivity
QVQLVESGGGLVQAGGSLRLSCAASGIIFKQNVMGWYRQAPGKERELVAAITSRDGSTYYADSVKGRFTISRDNAKNTVYLQMNSLKPEDTAVYYCAAKWRSPRYYLYGYWGQGTQVTVSS | high polyreactivity
QVQLVESRGGLVQAGGRLRLSCAASGSIFDWYAMGWYRQAPGKERELVADITWSGDSTYYADSVKGRFTISRDNAKNTVYLQMNSLKPEDTAVYYCAADIWFNTYYEYDYWGQGTQVTVSS | high polyreactivity
QVQLVESGGGLVQAGGSLRLSCAASGRIFFYYAMGWYRQAPGKEREFVAAISTSSGSTYYADSVKGRFTISRDNAKNTVYLQMNSLKPEDTAVYYCAADEVYSRGIWPVEDDYWGQGTQVTVSS | low polyreactivity
QVQLVESGGGLVQAGGSLRLSCAASGFTFTVYAMGWYRQAPGKERELVAVITSGDGTYYADSVKGRFTISRDNAKNTVYLQMHSLKPEDTAVYYCNARRYSSLRYRFAYDYWGQGTQVTESS | low polyreactivity
QVQLQESDGGLVQAGGSLRLICAASGSISPQYYMGWYRQAPGKEREFVAISKGTTTYYADSVKGRLTISRVNAKNTVYLQMNSLKPEDTAVYCCAAGRWLQKVHAYWDQGTQVTVSS | low polyreactivity
QVQLVESGGGLVHAGGSLRLSCAASGYTFDSYTMGWYRQAPGKERELVAAISGRGGSTYYADSVKGRFTISRDNAKNTVYIQMNSLKPEDTAVYYCNTYPPIGYDYWGQGTQVTVSS | low polyreactivity
QVQLVESGGGVVQAGGSLRFSCAASGSIFPGYAMGWYRQAPGKEREMVATITWSGGTTYYADSVKGRFTISRDYAKNTVYFQMNSLKPEDTAVYYCNATFGYPFLDYDDYWGQGTQVNVSS | low polyreactivity
QVQLVESGGGLVQAGGSLRLSCAASGSTFYYYAMGWYRQAPGKEREFVAAISSSTGSTYYADSVKGRFTISRDNAKNTVYLQMNSLKPEDTAVYYCNALTWYTSQDYDYWGQGTQVTVSS | high polyreactivity
QVQLVESGGGLVQAGGSLRLSCAASGLIFYWYAMGWYRQAPGKEREFVAAISYGGTTTSYADSVKGRFTISRDNAKNTVYLQMNSLKPEDTAVYYCAAEESTSSWSINDYWGQGTQVTVSS | low polyreactivity
QVQLVESGGGLVQAGGSLRLSCAASGSIIRTYVMGWYRQAPGKERELVAAITYSGGRTYYADSVKGRFTISRDNAKNTVYLQMNSLKPEDTAVYYCAARSPRPSAIYDYWGQGTQVTVSS | high polyreactivity
QVQLVESGGCLVQAGGSLRLSCDASGSTFPYYAMGWYRQAPGKERELVAAITLSGSSTYYTDSVKGRFTISRDNAKNTVYLQMNSLKPEDTAVYYCATRRVQWGYRYSYWRQGTQVTVSS | high polyreactivity
QVQLVESGGGLVQAGGSLRLSCAASGITFFTYAMGWYRQAPGKERELVATISRSGGRTYYADSVKGRFTISRDNAKNTVYLQMNSLKPEDTAVYYCAARTYYWGALIVSYDYWGQGTQVTVSS | low polyreactivity
QVQLVESGGGLVQAGGSLRLSCAASGIILSENDMGWYRQAPGKERELVAAITSSGSTSYADSVKGRFTISRDNAKNTVYLQMNSLKPEDTAVYYCAADYLNPFPPYQYWKQSYDYWGQGTQVTVSS | low polyreactivity
QVQLEESGGGLVQAGGSLRLSCAASGNTLGPYAMGWYRQATGKERELVAAITWSGGITDYADYVKGRFTISRDNAKNTVYLQMNSLKPEDTAVYYCNSGPSLGIFQGTSVGLRYDYWGQGTQVTLSS | low polyreactivity
QVHLVESGGGLVQAGGSLRLSCAASGRTFWSYAMGWYRQAPGKERELVAAISWRSGTTYYADSVKGRFTISRDNAKNTVYLQMNSLKPEDTAVYYCNAHSNYRGDYWGQGTQVTVSS | high polyreactivity
QVQLVESGGGLVQAGGSLRLSSASSGSIIFLYTMGWYRQAPGKERELVAAIDSVGSTNYADSVKGRFTISRDNAKNTVYLHMNSLKPEDTAVYYCNAYFWVGLYEYDYWGQGTQVTVSS | low polyreactivity
